Read-outs that look alike come from different tables or passages of the source.
Legend:
[1] = dog, in vivo, po
[2] = tested on: glucose metabolism; assay type: in vivo, dog; settings: dogs, estimate (90% CI)
[3] = dog, in vivo
[4] = in vivo; cited from earlier work
[5] = dog, in vivo; remark: listed apart in the source

Substance: insulin tregopil
- Off-times (dog, in vivo): ≤ 120 min
- tmax (dog, in vivo): ≤ 20 min
- Duration of PD effect after a dose (dogs, oral dose, statement in discussion): 90 min
- Cmax of first dose compared with second dose [1]: 117%
- Insulin AUC0–120 of first dose compared with second dose [1]: 118%
- Mean Cmax of first dose compared with second dose [1]: 88%
- tmax [1]: 20 min
- Mean difference (human insulin-tregopil): GIR AUC0-120 min ([2]; intraportal 3.6 pmol/kg/min): -24.1 mg/kg
- Mean difference (human insulin-tregopil): NHGB, last 30 min period 1 ([2]; intraportal 3.6 pmol/kg/min): 0.53 mg/kg/min
- Mean difference (human insulin-tregopil): GIR AUC120-240 min ([2]; intraportal 12.0 pmol/kg/min): -74 mg/kg
- Mean difference (human insulin-tregopil): NHGB, last 30 min period 2 ([2]; intraportal 12.0 pmol/kg/min): 0.30 mg/kg/min
- Mean difference (human insulin-tregopil): non-hepatic glucose uptake, last 30 min period 2 ([2]; intraportal 12.0 pmol/kg/min): -1.6 mg/kg/min
- Mean difference (human insulin-tregopil): ΔNHGB, period 1 to period 2 ([2]; intraportal 3.6 then 12.0 pmol/kg/min): 0.2 mg/kg/min
- Median tmax [3]: 20 min
- Time to peak concentration (tmax) [4]: 30 min
- Fraction extracted on first-pass by the liver [5]: one-third
